assay: soluble on expression in E. coli; label from the status in PepcDB or PDB records

Sequence	soluble on expression in E. coli
MEAGFVSIGDVTFRDLEDEAIVELVRKGNTDALEYLIHKYKNFVRAKSRSYFLVGADREDIVQEGMIGLFKAIRDYKEDKLSSFKAFAELCITRQIITAIKTATRQKHIPLNSYVSLDKPIYDEESDRTLLDVISEAKVTDPEEMIISQEEYTDIESKISELLSDLERKVLSLYLDGRSYQEISEQLNRHVKSIDNALQRVKRKLERYMEMRESTTLNS	not soluble
MEAKTMKDMQKEVDAYIGQFKEGYFSPLAMMARLTEEMGELAREVNHYYGEKPKKTTEKERSIEEELGDVLFVMICMANSLNIDLETAHNIVMNKFNTRDKDRWTRIDEGEKE	not soluble
MEARAIVIIPDTLKVGFIIGGRRGQGLMSIKTPQNTWSQPVFVKLTGGSIGLQAGVQSSDVVLVFRNDRNLDNIVNGKFTLGADASVAAGPVGRNALAATDSELKAEIYSWSTARGLFAGIALDGAALQIDDSANLDVYGKGTTPRMIFEGRTAEPPSSDVIAFRDRLEEVTYTARNNLEHHHHHH	not soluble
MEATLPVLDAKTAALKRRSIRRYRKDPVPEGLLREILEAALRAPSAWNLQPWRIVVVRDPATKRALREAAFGQAHVEEAPVVLVLYADLEDALAHLDEVIHPGVQGERREAQKQAIQRAFAAMGQEARKAWASGQSYILLGYLLLLLEAYGLGSVPMLGFDPERVRAILGLPSRAAIPALVALGYPAEEGYPSHRLPLERVVLWR	soluble
MECAEKVEAEIPGQAGRRAGKPSRTYYLEVYGCSLSEFDALIMASRLEEAGYRRVARPEDADVILVNTCAVRLDTEQRIAERLEKLRLQLPDRKYVVAGCLVKARPGLVARLVPEASLLAPQAVERVLDAVDALESGRRLVVLDGRRDTRSMPQLPITDAVVTVMIQEGCLGDCSFCITKVARRQVRSYSPRVIVERVREAVEKGAREIRLTGTDVAVYGVDLPGKPNLADLVAAILEKVEGDYRIRVGMMTPDQVEPYLDSLLDVYRDERVYKYFHLPVQSGDDEVLKIMKRNYTVSEYKAIHRRIKSRFPDAMIATDIIVGHPGETWEAFWNTVRLVEELRFEKVHLAQYSLRPHTEAASMEQVPDSVKKERSRILGKIVAEIGLEINGSYVGRRVRALVTERSWREGSMTGRLDNYTPIILPYEERAMGRWVYAEVEEATFFDLRSSKFEPAP	soluble
MEDVNDLYTMALGEFYAPAPSTSSIKKPAKVPEDQPSTSSAPPTTALFRQLLIGSRSQIERLKKENEELKTKLKHATSSGGVVICPNCTHHFKDRQCPMRPRAMKKMRARNCVELEFGNLEDLEMWLYLNQLETNNDGMPTVMNVKKATNCPEKSLKESGSLLPELVEKKREEKRQQEDQKAVVLEKRKPVTQKVQDHLKRRSKSPIGRGKDQSDKDIISNKKRKLNRQSKEEIDERSKIAKKAPISQRVQFPRMPAPQAPDAVASKVREQKPVDITPHPRPSASRNSESQKPVASKIQEKKTEVRTKSSPTNPIVNSKQPSQKKPADLTPHPKRPPITPETLPSRNSEIQKPAASKIQEKKTEVIARSQKSEASTKIAQKPSPTNPTVNFKQPSQKPADLTPKPITLASKSPITRSSEVSTEPSTKPKRAPIVWDDKPKDSTAKELPKELPKAKSHFEFKVKPIEKKDASPPKTTSTSSASPPNPDPAMKQKYKFVPTSKKQKLTETKNKDQKSTINESPVECQNSGQNEASNPTKLKDQELNKHVVPKNPEAIETPDERQESVQKSNEASATSSTKPSDPVETPSDEVDPQETQWKVYSVKQSRPVLDHIYKFALARQSLKRHWNDKMIVLNGDVPQEKVEESKPLSIAESLKRIGVSVEGIAVLQKQLKASAPEPPVLSTTVDDEDALGEFFPDLAKRKTSEIRPVSAESLWSVTDREEEELKILVREDSVVPPSGDCLMDVEAYEITEDLESQTYEASQSDWKEFCLEDVDDDVDETLRERKLSEMEKSAENLDENMDWIENLEELGNDDEQEEEEEEDQEQEQEQVAPSRSISVPLEMKNDFVLSDEDDPVSPVTSTPRKEDFNDDLSGCLEEDEEDTENLLPQAKDDSFIDELDWNYGTDYEEEEVEEAEVVVEEKDNSGSDHDATLEDGEISENDDGEDEKKEEEPKKPIRERTKFMITEDQLGPKTDEEEDEPPEIHRAPPRKRKINYNRQKGSEDNRHRNYRKRDTRPATYLSLLKRRNS	not soluble
MEDYANISKGKEKFFPHCFYGRCCARRMLCDANVFPYALPVEANSLKEQAPCLKDEECDLFPDFLGTCVHHQNVTNILENRRFKYFPTNNNVKPKGYGMCCYSKKSSICSTGGTPFEVELSDGPCSNHIDCNPDELPFKWNAYCSQNAKSNMCCRDTLVDSLCPDGFTPYRTQQKCEGYHPLSKSSGKCPKSNGMCHRGHCCPRLTIDEARKATPYHLNYVTDTQCDPTEPLDFVYRWAFCDEIEEKIVVMGDRNADGTELNWQQSRCTINR	not soluble
MEEGYRLKFIFIGNQNNNIKNKNFSNPHNILFDSKKDIILTQDLCEEFLNLNINKQDHAIELLKKELSPLLFEDSLSYLKEEFINEKLEFNISNLASRYTANNDVDTINNKIIEGISITNNFKYTNISYLKELKGYIENDILDKMKSKYAKNIYLNFKKIFSNLEQSVNNYLELEEEFEEKKKYLSEIYELIDEINIDPYIFLTEHNECNIYKISENEKLELQTYMSKIEKVLLKYQTYLKETCKECLFYPYLLVQGEAGIGKSHLLAHLSKKLRDENHIIYLFLGQFFTKNEDPWHQILNDLEVTNSVDNFLRSISNKAKETKKRAFIIIDALNEGEGKRLWGNYFQSFINHIKKYSNIALIFSIRTPFEDVILPKNAIQDNNIVVFQHEGFSKEENYNPIVSFCDFYGLELPKLPILNPEFNNPLFLKLMCEYCVNKFKEFDQTISVAELFTNVLKTVNINLSKEDKFDFDKNINVVQKVIKGLVELMNDSEFNQLNYEESYTVVNNIAKEYVQKSNRFLEALIDENILIKNTGYKGEMIIYFSYERMGDYFLSEYLLEKYRNVDKRDLVTKLQSDEKVTRYFQKEDDLSYNRGLINELFIKLANEFNIELFEVFPQFKNNYNMIYSFINSLVWRKDGSISKHTKCYISDNVIPYDAFRNNFLDVLLIKMPQKNHPLNIWALHKLLKQCNLGKRDFLWTQYISINNEKVFEIINWLFSNYKKLDEETAEKYMIFLTWIFSATNNKLRDLGTKSLVKLFKTFPTKIIGLLKLFENNNDPYIVERLYASVLGATLRIDICEIHIEIANYIYEEIFDKEMVYPHILMRDYARQTIEYISLSKDISNINLEKIRPPYKSNWYKKEYSNLNIDDYIKSLKNKLDSHLHFSIDKIKNSMTTEYGRGTGAYGDFGRYVFGYAVRNWVKGFKSDQDLSNIALMRIFEMGYDAKLHGEFDMWVNRYDNFNNSIERISKKYQWIAYYEILAKLVDKFPDVQYSGLWDDYIRDIDPTLLLLEIDK	not soluble
MEEMLREIERILEWPRMLKATVISKGFSFDEKYKIELESGASYFIKVCDSSYFERKQEEYEYMQQLDSLHIPMPKLIHFISLTKFNKCVQVFEWIDGLDGEDNLRTLSTQTQYRAGKKAGEVIKKIHLVEKEDKSNSWEMSIWSKYERYLEALKEYEVDFFRLNTVIDFVGNHKDLLKNRPIVFLHDDFHPANIMIDQNEFRAVIDFARFDIGDPIHDFYKVALFTTNISKPFAVGQVHGYCGGEPDLHFWKLYSLYAAMIFPADIVWTNRSTPYLLDDMKERLNGILEDHNDFSSYIPKWYQSSEFNK	not soluble
MEETSMGKLSICRQNVPMKSMPSRLPKIDQAGVARRLEALRDALGLDKGEFAQSFGLDPSSYSKVLQGKKPLKSEYGHAIAEGWGVSMDFIYRGDMSRIDETLRTKVMQNLTAPMR	not soluble
MEEVSSEMEVEVQNRQLSDSSPAQNVKKFGLKNSIQTNFGSDYVFQIVPKIDWTAIAVSLSTNTVKLYSPVTGQYYGECKGHSDTVNQIAFSSDSAASPHVLHSCSSDGTIRSWDTRSFQQVSRIDTGNDQEIFSFSYGGAADNLLAGGCKEQVLLWDWRNSKQVACLEESHMDDVTQVHFVPNKPNKLLSASVDGLICLFNTEGDINDDDHLESVINVGTSIGKIGFLGDGYKKLWCLTHIETLSIWNWEDGSCEVNLEKARELASDSWTQDNVDYFVDCHCPGGEDLWVIGGTCAGTVGYFPVNYKQPGSIGTAEAILGGGHIDVVRSVLQMPGEYGGAAGLFGWTGGEDGRLCCWKSDEDATEINRSWTSSELVVKPPRNRKKNRHSPY	not soluble
MEFEGCSGFRQRLVLSTLSGKPVKIRNIRSKDDNPGLRDFEASFIRMLDKLTNGTRIEINQTGTVLFYQPGLLYGGSVEHECNVQRSVGYYLEALLMLVPFMKTPIKAVLKGITNHPTDPSVDLLKVTAVPLMKRFGINGDGLEIKVVKRGMAPGGGGEVHFSCPVSRSMKPVQLTEAGKIKRIRGTAFSVRVSPQMANRIVDSARSILNKFIPDIYIYTDHMKGPNSGKSPGFGLGLVAETLNGVFLGAEVVSTPQGQGEMQLPEDLGRNCAKLLLEEIYRGGCVDSTNQSLALLYMTLGQQDVSKTLLGPLSPYTMDFLRHIRDFFQIMFKIETQKPSEDECKGGEKVLMTCVGAGYNNISKSIK	not soluble
MEFNLSALGSAPAAEETYDVVIIGGGPAGLTAGIYAGRAQLKTVIVEKGLPGGQIAQTDEVENYPGFPEGISGPELASRMVRQAEKFGARIVMDEVLGLEKAEGGYLVRGYERNYRARAVIVATGANPRRLGVPGEDKFYGRGVSTCATCDGFFYRDKEVVVVGGGDAAVEEGIFLTKFARKVTLVHRRDELRANKVAQKRAFQNPKMHFLFSHVVTEILGEDQVTGVRLKNLKTGEEYVYPTDGVFVFIGHEPNTAFLKGVVELRPDGYIAVRDEVFTSEPGIFAAGDVADPIYRQLTTSVGAGTRAAMMAERYLAEEAEKVKG	soluble
MEFYPIHILLSKLEEEIAFQQKMATTYLVSPPKYSPEVIGTVSETLRRISADLKLVSLILGELEEVQERDIKEEALILSSESLSLISLLLPAIEKYAPFFLESMKVERKPILEKLEDVMAEIENAIEKLELSSSREIIRSLEELAQSLEISLKMGERILERES	not soluble
MEGIMNPYTALPTPQQLLAIEQSVYSSDPFRQGLTPPQMPGDHMHPYGAEPLFHDLDSDDTSLSNLGDCFLATSEAGPLQSRVGNPIDHLYSMQNSYFTS	soluble
MEGLLIDYVQPGSIAEELEIEAGDRLVAINGQDLRDIIDFSFYAHDEELALEIVKPSGDHWEAEIERDGDEPLGLVFAPPVPAQCGNKCVFCFVHQLPKGLRRPLYVKDEDYRLSFLYGNYVTLSNIRRGDLDRIVAQRLSPLYISVHATNPALRERLLGRSEILPILDLMRELAAARIVMHSQIVLCPGLNDGVELEKTVRDLAGLHPWVESLAIVPIGLTKHRRGLPALEPVTASYAETFVQNWQPAAERLERELGAPFLFIADEFYIKAGLPFPPLETYGDLPQIENGVGMIPLFLDESERVLKKARKGKPVTVTVVTGESPYRYLAAFLERLSVRTGATFKPVAVHNRLFGESVTVTGLVAGSDIVEELSGRDLGDAVLVPDVMLKEGEGIFLDDLSVDGLGKSLGTRVLVVEATPQGVVDALRRVRSMLEHHHHHH	not soluble
MEGRIPPHSLEAEQSVLGAILLDYQVLDEIEGLLPTPEAFYAEAHRKIYAAMQGLRAEGSPVDLVTLAEELSRRGELDGVGGISYLMQLSEATPTAAYAEHYARIVAEKWTLRRLIQAAGEAMRLAYEEAGSLDEILDQAGKRILEVALAQTEVEARSMRELVHETFEHIEALFQNKGETAGVRTGFKELDQLIGTLAPGSLNIIAARPAMGKTAFALTIAQHAALKEGVGVGIYSLEMPAAQLVLRMMCSEARIDMNRVRLGQLSDRDFSRLVDVAGRLSEAPIFIDDTPDLTLMELRARARRLRSQHNVGLIIIDYLQLMSGPGGGQKGENRQQEIAAISRGLKALARELGVPVIALSQLSRAVEARPNKRPMLSDLRESGSIEQDADLVMFIYRDEYYNPHSEKAGIAEIIVGKQRNGPTGTVELQFHAQHVRFNDLAKEP	soluble
MEHKLEDIIAIFNQCFEEEYNTRLVKGGDEPIYLPANDEVPYNAIYFARGFYSSALHEIAHWLVAGKERRKLEDFGYWYEPDGRSEERQRDFEKVEVKPQALEWILATAAGFRYFASADNLNGNPGDTQPFKQAVYEQVKIYAEKGLPKRAETLRKALVAFYSTEDDINLAKFDVTCI	not soluble

From the DeepSol protein solubility set
